Data as given in PMC4497409.

Molecular target: T1, Norrin (Norrie Disease Protein), recombinant wild-type after removal of the SUMO fusion tag (human), Q00604
T1 chain: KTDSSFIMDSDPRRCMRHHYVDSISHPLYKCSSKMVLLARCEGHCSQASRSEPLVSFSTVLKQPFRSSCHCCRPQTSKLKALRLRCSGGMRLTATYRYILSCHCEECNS
Assay: SAXS; Norrin at 0.75 and 1.26 mg/ml in 10 mM HEPES, pH 7.5, 0.7 M NaCl, 0.5% CHAPS; 293 K
Conditions: remark: other sources report otherwise

B1: Norrin (Norrie Disease Protein), recombinant wild-type after removal of the SUMO fusion tag, Q00604 25-133 (ligand)
chain: KTDSSFIMDSDPRRCMRHHYVDSISHPLYKCSSKMVLLARCEGHCSQASRSEPLVSFSTVLKQPFRSSCHCCRPQTSKLKALRLRCSGGMRLTATYRYILSCHCEECNS
stoichiometry N: 2
